T1: SAS-5::His6, full-length, refolded in vitro (C. elegans, UniProt Q20010 1-404, a glycine codon was introduced immediately next to initiator methionine)
T1 construct: SAS-5 of C. elegans, longer isoform SAS-5a, full length; codon-optimised gene in pET21b (NdeI/HindIII); a glycine codon was put next to the initiator methionine; Prey in the pull-downs with GST-ZYG-1 fragment baits; also called full-length SAS-5; SAS-5::6XHis; not shown: His6, C-terminal, kept
T1 sequence (looked up): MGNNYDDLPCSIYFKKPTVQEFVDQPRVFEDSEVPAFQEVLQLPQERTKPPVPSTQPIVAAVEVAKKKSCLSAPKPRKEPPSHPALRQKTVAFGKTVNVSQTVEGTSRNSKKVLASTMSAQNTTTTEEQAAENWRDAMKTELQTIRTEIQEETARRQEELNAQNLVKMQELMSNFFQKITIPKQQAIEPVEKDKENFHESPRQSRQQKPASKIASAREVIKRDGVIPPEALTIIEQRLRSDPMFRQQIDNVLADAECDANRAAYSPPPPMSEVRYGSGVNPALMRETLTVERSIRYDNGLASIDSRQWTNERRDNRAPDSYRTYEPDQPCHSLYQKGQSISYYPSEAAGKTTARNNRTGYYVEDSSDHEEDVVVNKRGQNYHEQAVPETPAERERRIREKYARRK


Columns and labels:
SAS-6 head domain = SAS-6 head domain (UniProt Q6UVJ0); settings: cited from earlier work
[1] = target: T1, SAS-5::His6, full-length, refolded in …; test: pull-down; GST-ZYG-1 fragment baits (4.32 mM as printed) on magnetic glutathione beads, blocked with Odyssey blocking buffer; full-length SAS-5 prey (0.2 mM as printed) 1 h at 4 °C; washed with 50 mM Tris pH 8.0, 300 mM NaCl, 5 mM DTT; immunoblot with anti-GST and anti-SAS-5; GST alone as negative control; settings: both partners purified

SAS-6 head domain (from UniProt Q6UVJ0), sequence (Q6UVJ0 1-143): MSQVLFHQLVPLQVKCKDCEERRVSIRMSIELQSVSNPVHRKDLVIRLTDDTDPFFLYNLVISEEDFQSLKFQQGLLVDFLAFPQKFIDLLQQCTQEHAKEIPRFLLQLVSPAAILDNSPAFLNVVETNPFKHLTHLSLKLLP

Molecule	Kd (SAS-6 head domain) [µM]	binding result [1]
SAS-6 head domain (from UniProt Q6UVJ0)	75	
GST-ZYG-1 cryptic polo box (CPB) fragment spanning 338-564 (domain or fragment, C. elegans, UniProt Q9GT24 338-564, looked up, ZYG-1 of C. elegans, cryptic polo box (CPB), residues 338-564; also called ZYG-1 CPB; not shown: GST, N-terminal, kept; His6, C-terminal, kept) GTVPPSREDRNRSQLWPIRMDRLEGQRVCTAGGRYIVELDTRCRFEVAAQGNFVKRILIVEVDEMVQTVYVHRIPDRTVRGRNGEEELITLTNNPFVYTSYSQMPKEVQNDYMRLQKMVAVTISGRVAKVTFRRPSQFPDAQAQLMENGDLRIKLPRSVIVRKMDNGEIFNCIDGIATQKQAVSGITLTKVNEVYKYLIRFEQCLNGMDRGMVCFPIVFSAGTNMVG		binds
GST-ZYG-1(1-250) K41M (kinase domain, C-terminal 6X-His) (domain or fragment, C. elegans, UniProt Q9GT24 1-250, looked up, ZYG-1 of C. elegans, kinase domain, residues 1-250, with K41M (used to reduce toxicity to E. coli); also called kinase domain (amino acids 1-250); not shown: GST, N-terminal, kept; His6, C-terminal, kept) MSGGKSGSRLSAYSHLKEIGKGGFGVVYAAQRENGEKVAIMRIDKKVPKNRVWTEIQTMKELKKSKYVVEFYEDFVEDGYTYIVMELCEGGSLQAYVREHGALDDATAVHVLRQLISAVSFMHRVNVIHRDLSAGNVFIKDSKKKKMTVKLGDFGLATTLGRGETTCTIVGTPGFIAPQVYDQEYTQSADVYSLGAVLYTMLTARNPPPKGLPPTCGMSPNAARLVEQMMDTDAKKRIPLTQIVLSEFMY		binds

Reference: publication PMC11169420, “The kinase ZYG-1 phosphorylates the cartwheel protein SAS-5 to drive centriole assembly in C. elegans” (EMBO Reports, 2024)
